# Measurements as given in PMC6224091.
# B1: V5-Par6A (wild type) [not stated] / YFP-Tuba [not stated] (parent)
# chain 1: MARPQRTPARSPDSIVEVKSKFDAEFRRFALPRASVSGFQEFSRLLRAVHQIPGLDVLLGYTDAHGDLLPLTNDDSLHRALASGPPPLRLLVQKRAEADSSGLAFASNSLQRRKKGLLLRPVAPLRTRPPLLISLPQDFRQVSSVIDVDLLPETHRRVRLHKHGSDRPLGFYIRDGMSVRVAPQGLERVPGIFISRLVRGGLAESTGLLAVSDEILEVNGIEVAGKTLDQVTDMMVANSHNLIVTVKPANQRNNVVRGASGRLTGPPSAGPGPAEPDSDDDSSDLVIENRQPPSSNGLSQGPPCWDLHPGCRHPGTRSSLPSLDDQEQASSGWGSRIRGDGSGFSL
# chain 2: MEAGSVVRAIFDFCPSVSEELPLFVGDIIEVLAVVDEFWLLGKKEDVTGQFPSSFVEIVTIPSLKEGERLFVCICEFTSQELDNLPLHRGDLVILDGIPTAGWLQGRSCWGARGFFPSSCVRELCLSSQSRQWHSQSALFQIPEYSMGQARALMGLSAQLDEELDFREGDVITIIGVPEPGWFEGELEGRRGIFPEGFVELLGPLRTVDESVSSGNQDDCIVNGEVDTPVGEEEIGPDEDEEEPGTYGVALYRFQALEPNELDFEVGDKIRILATLEDGWLEGSLKGRTGIFPYRFVKLCPDTRVEETMALPQEGSLARIPETSLDCLENTLGVEEQRHETSDHEAEEPDCIISEAPTSPLGHLTSEYDTDRNSYQDEDTAGGPPRSPGVEWEMPLATDSPTSDPTEVVNGISSQPQVPFHPNLQKSQYYSTVGGSHPHSEQYPDLLPLEARTRDYASLPPKRMYSQLKTLQKPVLPLYRGSSVSASRVVKPRQSSPQLHNLASYTKKHHTSSVYSISERLEMKPGPQAQGLVMEAATHSQGDGSTDLDSKLTQQLIEFEKSLAGPGTEPDKILRHFSIMDFNSEKDIVRGSSKLITEQELPERRKALRPPPPRPCTPVSTSPHLLVDQNLKPAPPLVVRPSRPAPLPPSAQQRTNAVSPKLLSRHRPTCETLEKEGPGHMGRSLDQTSPCPLVLVRIEEMERDLDMYSRAQEELNLMLEEKQDESSRAETLEDLKFCESNIESLNMELQQLREMTLLSSQSSSLVAPSGSVSAENPEQRMLEKRAKVIEELLQTERDYIRDLEMCIERIMVPMQQAQVPNIDFEGLFGNMQMVIKVSKQLLAALEISDAVGPVFLGHRDELEGTYKIYCQNHDEAIALLEIYEKDEKIQKHLQDSLADLKSLYNEWGCTNYINLGSFLIKPVQRVMRYPLLLMELLNSTPESHPDKVPLTNAVLAVKEINVNINEYKRRKDLVLKYRKGDEDSLMEKISKLNIHSIIKKSNRVSSHLKHLTGFAPQIKDEVFEETEKNFRMQERLIKSFIRDLSLYLQHIRESACVKVVAAVSMWDVCMERGHRDLEQFERVHRYISDQLFTNFKERTERLVISPLNQLLSMFTGPHKLVQKRFDKLLDFYNCTERAEKLKDKKTLEELQSARNNYEALNAQLLDELPKFHQYAQGLFTNCVHGYAEAHCDFVHQALEQLKPLLSLLKVAGREGNLIAIFHEEHSRVLQQLQVFTFFPESLPATKKPFERKTIDRQSARKPLLGLPSYMLQSEELRASLLARYPPEKLFQAERNFNAAQDLDVSLLEGDLVGVIKKKDPMGSQNRWLIDNGVTKGFVYSSFLKPYNPRRSHSDASVGSHSSTESEHGSSSPRFPRQNSGSTLTFNPSSMAVSFTSGSCQKQPQDASPPPKECDQGTLSASLNPSNSESSPSRCPSDPDSTSQPRSGDSADVARDVKQPTATPRSYRNFRHPEIVGYSVPGRNGQSQDLVKGCARTAQAPEDRSTEPDGSEAEGNQVYFAVYTFKARNPNELSVSANQKLKILEFKDVTGNTEWWLAEVNGKKGYVPSNYIRKTEYT
# Variants of: B1
# Experiment: co-immunoprecipitation (IP: GFP), quantified blot
# Conditions: with YFP-Tuba; HEK293T cells; co-expressed with HA-Cdc42(G12V); n = 4; parent: 1; read off a plot
row,Variant,ratio to parent
1,chain 1 MARPQRTPARSPDSIVEVKSKFDAEFRRFALPRASVSGFQEFSRLLRAVHQIPGLDVLLGYTDAHGDLLPLTNDDSLHRALASGPPPLRLLVQKRAEADSSGLAFASNSLQRRKKGLLLRPVAPLRTRPPLLAALPQDFRQVSSVIDVDLLPETHRRVRLHKHGSDRPLGFYIRDGMSVRVAPQGLERVPGIFISRLVRGGLAESTGLLAVSDEILEVNGIEVAGKTLDQVTDMMVANSHNLIVTVKPANQRNNVVRGASGRLTGPPSAGPGPAEPDSDDDSSDLVIENRQPPSSNGLSQGPPCWDLHPGCRHPGTRSSLPSLDDQEQASSGWGSRIRGDGSGFSL [chain 1 I133A S134A],0.73
